From publication PMC4331651, “The use of SMALPs as a novel membrane protein scaffold for structure study by negative stain electron microscopy” (Biochimica et Biophysica Acta, 2015)

What was measured:
[1] = target: Escherichia coli multidrug transporter AcrB bearing a C-terminal octahistidine tag, in SMA lipid particles (SMALPs) (Escherichia coli) (UniProt P31224); test: AUC; protomers to trimer; sedimentation velocity, 0.5 mg/mL AcrB-SMALP, 50 mM Tris pH 8 with 10 mM or 500 mM NaCl, 40,000 rpm, 20 h, 4 °C, c(s) analysis
[2] = target: Escherichia coli multidrug transporter AcrB bearing a C-terminal octahistidine tag, in SMA lipid particles (SMALPs) (Escherichia coli) (UniProt P31224); test: negative stain electron microscopy (single particle, 3D reconstruction); protomers to trimer; AcrB SMALPs ~20 ug/mL on carbon-coated grids, 1% uranyl acetate; 6884 singlet particles; refined with C1 and with C3 symmetry
AcrB = target: T1, AcrB (Escherichia coli, UniProt P31224); test: fluorescence polarization titration of R6G with AcrB SMALP; format: binding
T1 construct: full-length AcrB with C-terminal octahistidine tag (kept); expressed in E. coli, extracted with styrene maleic acid co-polymer into SMALPs, cobalt resin purified; 110 kDa band; homotrimer (~360 kDa)
T1 sequence (P31224 whole entry): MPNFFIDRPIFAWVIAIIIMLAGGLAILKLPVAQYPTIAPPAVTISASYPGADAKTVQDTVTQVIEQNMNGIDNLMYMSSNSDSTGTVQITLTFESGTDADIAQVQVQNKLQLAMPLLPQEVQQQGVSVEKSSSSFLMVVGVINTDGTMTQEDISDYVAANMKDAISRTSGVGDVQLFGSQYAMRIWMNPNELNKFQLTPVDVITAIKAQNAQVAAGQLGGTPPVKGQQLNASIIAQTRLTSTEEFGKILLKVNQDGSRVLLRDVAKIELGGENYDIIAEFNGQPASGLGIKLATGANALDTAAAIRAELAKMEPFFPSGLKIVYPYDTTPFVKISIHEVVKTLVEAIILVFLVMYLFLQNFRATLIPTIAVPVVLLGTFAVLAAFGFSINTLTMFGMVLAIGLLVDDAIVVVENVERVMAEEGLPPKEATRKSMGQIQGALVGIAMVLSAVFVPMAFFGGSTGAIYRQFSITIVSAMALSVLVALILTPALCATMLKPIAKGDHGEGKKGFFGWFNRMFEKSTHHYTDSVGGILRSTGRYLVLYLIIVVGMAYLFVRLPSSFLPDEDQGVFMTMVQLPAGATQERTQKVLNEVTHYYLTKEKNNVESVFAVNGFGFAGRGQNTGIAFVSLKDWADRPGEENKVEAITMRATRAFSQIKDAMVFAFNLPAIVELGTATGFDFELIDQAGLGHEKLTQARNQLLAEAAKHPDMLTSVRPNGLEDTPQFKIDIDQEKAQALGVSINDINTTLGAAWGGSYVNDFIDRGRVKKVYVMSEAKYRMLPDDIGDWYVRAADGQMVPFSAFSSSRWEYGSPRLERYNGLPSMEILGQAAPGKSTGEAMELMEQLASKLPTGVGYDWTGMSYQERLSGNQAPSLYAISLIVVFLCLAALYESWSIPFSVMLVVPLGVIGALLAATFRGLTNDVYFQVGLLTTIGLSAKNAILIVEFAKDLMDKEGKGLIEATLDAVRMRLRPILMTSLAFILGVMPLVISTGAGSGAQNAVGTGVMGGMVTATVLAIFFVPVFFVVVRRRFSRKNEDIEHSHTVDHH
From the text: fluorescence polarization titration of R6G with AcrB SMALP on AcrB | measure the Kd value of rhodamine 6G binding.

Escherichia coli multidrug transporter AcrB bearing a C-terminal octahistidine tag, in SMA lipid particles (SMALPs) (from UniProt P31224 1-1049) (natural protein)
stoichiometry N [1]: 3 | stoichiometry N [2]: 3

CCN=c1cc2oc3cc(NCC)c(C)cc3c(-c3ccccc3C(=O)OCC)c-2cc1C [rhodamine 6G]
Kd (AcrB): 52 ± 6.6 nM
